B1: humanized 13C6 variant h13C6a expressed in FUT8KO CHO cells (antibody)
heavy: EVQLVESGPALVKPTQTLTLTCTFSGFSLSTSGVGVGWIRQPPGKALEWLALIWWDDDKYYNPSLKSRLTISKDTSKNQVVLTMTNMDPVDTATYYCARRDPFGYDNAMGYWGQGTLVTVSSASTKGPSVFPLAPSSKSTSGGTAALGCLVKDYFPEPVTVSWNSGALTSGVHTFPAVLQSSGLYSLSSVVTVPSSSLGTQTYICNVNHKPSNTKVDKKVEPKSCDKTHTCPPCPAPELLGGPSVFLFPPKPKDTLMISRTPEVTCVVVDVSHEDPEVKFNWYVDGVEVHNAKTKPREEQYNSTYRVVSVLTVLHQDWLNGKEYKCKVSNKALPAPIEKTISKAKGQPREPQVYTLPPSREEMTKNQVSLTCLVKGFYPSDIAVEWESNGQPENNYKTTPPVLDSDGSFFLYSKLTVDKSWQQGNVFSCSVMHEALHNHYTQKSLSLSPGK
light: DIQMTQSPSSLSASVGDRVTITCKASQNVGTAVAWYQQKPGKAPKLLIYSASNRYTGVPSRFSGSGSGTDFTLTISSLQPEDFATYYCQQYSSYPLTFGQGTKVEIKRTVAAPSVFIFPPSDEQLKSGTASVVCLLNNFYPREAKVQWKVDNALQSGNSQESVTEQDSKDSTYSLSSTLTLSKADYEKHKVYACEVTHQGLSSPVTKSFNRGEC
notes: copies: 2 + 2
B2: humanized 13C6 variant h13C6a expressed in CHO cells (antibody)
heavy: EVQLVESGPALVKPTQTLTLTCTFSGFSLSTSGVGVGWIRQPPGKALEWLALIWWDDDKYYNPSLKSRLTISKDTSKNQVVLTMTNMDPVDTATYYCARRDPFGYDNAMGYWGQGTLVTVSSASTKGPSVFPLAPSSKSTSGGTAALGCLVKDYFPEPVTVSWNSGALTSGVHTFPAVLQSSGLYSLSSVVTVPSSSLGTQTYICNVNHKPSNTKVDKKVEPKSCDKTHTCPPCPAPELLGGPSVFLFPPKPKDTLMISRTPEVTCVVVDVSHEDPEVKFNWYVDGVEVHNAKTKPREEQYNSTYRVVSVLTVLHQDWLNGKEYKCKVSNKALPAPIEKTISKAKGQPREPQVYTLPPSREEMTKNQVSLTCLVKGFYPSDIAVEWESNGQPENNYKTTPPVLDSDGSFFLYSKLTVDKSWQQGNVFSCSVMHEALHNHYTQKSLSLSPGK
light: DIQMTQSPSSLSASVGDRVTITCKASQNVGTAVAWYQQKPGKAPKLLIYSASNRYTGVPSRFSGSGSGTDFTLTISSLQPEDFATYYCQQYSSYPLTFGQGTKVEIKRTVAAPSVFIFPPSDEQLKSGTASVVCLLNNFYPREAKVQWKVDNALQSGNSQESVTEQDSKDSTYSLSSTLTLSKADYEKHKVYACEVTHQGLSSPVTKSFNRGEC
notes: copies: 2 + 2
B3: humanized 13C6 variant h13C6i expressed in FUT8KO CHO cells (antibody)
heavy: EVQLVESGPALVKPTQTLTLTCTFSGFSLSTSGVGVGWIRQPPGKALEWLALIWWDDDKYYNPSLKSRLTISKDTSKNQVVLTMTNMDPVDTATYYCARRDPFGYDNAMGYWGQGTLVTVSSASTKGPSVFPLAPSSKSTSGGTAALGCLVKDYFPEPVTVSWNSGALTSGVHTFPAVLQSSGLYSLSSVVTVPSSSLGTQTYICNVNHKPSNTKVDKKVEPKSCDKTHTCPPCPAPELLGGPSVFLFPPKPKDTLMISRTPEVTCVVVDVSHEDPEVKFNWYVDGVEVHNAKTKPREEQYNSTYRVVSVLTVLHQDWLNGKEYKCKVSNKALPAPIEKTISKAKGQPREPQVYTLPPSREEMTKNQVSLTCLVKGFYPSDIAVEWESNGQPENNYKTTPPVLDSDGSFFLYSKLTVDKSWQQGNVFSCSVMHEALHNHYTQKSLSLSPGK
light: DIQMTQSPSSLSASVGDRVTITCKASQNVGTAVAWYQQKPGKSPKLLIYSASNRYTGVPSRFSGSGSGTDFTLTISSLQPEDFATYFCQQYSSYPLTFGQGTKVEIKRTVAAPSVFIFPPSDEQLKSGTASVVCLLNNFYPREAKVQWKVDNALQSGNSQESVTEQDSKDSTYSLSSTLTLSKADYEKHKVYACEVTHQGLSSPVTKSFNRGEC
notes: copies: 2 + 2
B4: humanized 13C6 variant h13C6i expressed in CHO cells (antibody)
heavy: EVQLVESGPALVKPTQTLTLTCTFSGFSLSTSGVGVGWIRQPPGKALEWLALIWWDDDKYYNPSLKSRLTISKDTSKNQVVLTMTNMDPVDTATYYCARRDPFGYDNAMGYWGQGTLVTVSSASTKGPSVFPLAPSSKSTSGGTAALGCLVKDYFPEPVTVSWNSGALTSGVHTFPAVLQSSGLYSLSSVVTVPSSSLGTQTYICNVNHKPSNTKVDKKVEPKSCDKTHTCPPCPAPELLGGPSVFLFPPKPKDTLMISRTPEVTCVVVDVSHEDPEVKFNWYVDGVEVHNAKTKPREEQYNSTYRVVSVLTVLHQDWLNGKEYKCKVSNKALPAPIEKTISKAKGQPREPQVYTLPPSREEMTKNQVSLTCLVKGFYPSDIAVEWESNGQPENNYKTTPPVLDSDGSFFLYSKLTVDKSWQQGNVFSCSVMHEALHNHYTQKSLSLSPGK
light: DIQMTQSPSSLSASVGDRVTITCKASQNVGTAVAWYQQKPGKSPKLLIYSASNRYTGVPSRFSGSGSGTDFTLTISSLQPEDFATYFCQQYSSYPLTFGQGTKVEIKRTVAAPSVFIFPPSDEQLKSGTASVVCLLNNFYPREAKVQWKVDNALQSGNSQESVTEQDSKDSTYSLSSTLTLSKADYEKHKVYACEVTHQGLSSPVTKSFNRGEC
notes: copies: 2 + 2

Legend:
[1] = molecular target: recombinant FcγRIIIa (V158) (R&D Systems, cat#4325-FC-050) (UniProt P08637); assay: Biacore binding to recombinant FcγRIIIa (V158), low density
recombinant FcγRIIIa (V158) (R&D Systems, cat#4325-FC-050) (UniProt P08637), sequence (P08637 17-208 F176V limits assumed): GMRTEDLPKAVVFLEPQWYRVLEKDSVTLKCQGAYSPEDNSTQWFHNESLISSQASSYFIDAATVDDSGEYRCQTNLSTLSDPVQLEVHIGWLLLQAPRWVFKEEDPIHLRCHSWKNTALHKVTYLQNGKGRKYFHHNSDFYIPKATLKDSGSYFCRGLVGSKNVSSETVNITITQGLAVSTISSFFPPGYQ

[2] = molecular target: recombinant FcγRIIIa (V158) (R&D Systems, cat#4325-FC-050) (UniProt P08637); assay: Biacore binding to recombinant FcγRIIIa (V158), high density
[3] = molecular target: T1, recombinant FcγRIIIa (V158) (R&D Systems, cat#4325-FC-050) (UniProt P08637 17-208); assay: Biacore binding to recombinant FcγRIIIa
T1 sequence (P08637 17-208 F176V limits assumed): as above

[4] = molecular target: T1, recombinant FcγRIIIa (V158) (R&D …); assay: Biacore binding to recombinant FcγRIIIa (V158), high density
[5] = molecular target: T1, recombinant FcγRIIIa (V158) (R&D …); assay: Biacore binding to recombinant FcγRIIIa (V158), low density
[6] = molecular target: T1, recombinant FcγRIIIa (V158) (R&D …); assay: Biacore, FcγRIIIa (V158) binding (summary table; equals the 9th table, row 11, column 4)

Row | Molecule | Kd [1] [nM] | Kd [2] [nM] | fold improvement of binding against CHO cell expressed material [3] [fold] | Kd [4] [nM] | Kd [5] [nM] | Kd [6] [nM]
1 | Herceptin CHO (antibody) | 82 | 67 | – | – | – | –
2 | B1 | – | – | ~3 | 27 | 38 | –
3 | B2 | – | – | – | 113 | 117 | –
4 | B3 | – | – | ~3 | 24 | 36 | 24
5 | B4 | – | – | – | 111 | 122 | –

Source: US20180362620A1 (Genentech, published 2018)
